Consider four molecules from US20170029530A1 (AbbVie / Abbott, published 2017).

Several values for one entry are separate records, joined by “and”; a condition that tells them apart may be missing. Equal values may be shown once.

One experiment has as its target T1, hDPEP1-His (human, UniProt P16444 17-385, limits assumed).
T1 construct: Neither the origin nor the limits of this protein are described; not shown: histidine tag
T1 sequence (looked up): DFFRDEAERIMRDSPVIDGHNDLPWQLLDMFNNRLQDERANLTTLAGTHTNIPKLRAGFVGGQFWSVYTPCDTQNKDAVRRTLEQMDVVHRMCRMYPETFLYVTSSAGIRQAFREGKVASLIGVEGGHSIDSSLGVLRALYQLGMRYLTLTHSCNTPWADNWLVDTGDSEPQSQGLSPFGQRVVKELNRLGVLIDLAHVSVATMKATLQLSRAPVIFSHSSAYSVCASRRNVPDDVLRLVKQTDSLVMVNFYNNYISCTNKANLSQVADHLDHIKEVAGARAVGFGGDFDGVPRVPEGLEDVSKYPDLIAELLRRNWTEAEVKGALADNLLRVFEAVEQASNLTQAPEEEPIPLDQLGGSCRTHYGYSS
Briefly: SPR, BIAcore 2000, antibody captured with anti-human capture kit. (In general: SPR reads the build-up and loss of mass on a sensor chip optically.)

Experiment [1] addresses T2, hDPEP2 ECD with histidine tag (human, UniProt Q9H4A9 33-463).
T2 construct: also called hDPEP2-His; not shown: histidine tag
Described as above.

The target in experiment [2] is T3, rat DPEP3 ECD with histidine tag (rat, UniProt Q5U2X4 36-459, limits assumed).
T3 construct: also called rDPEP3-His; ratDPEP3-His; not shown: histidine tag
T3 sequence: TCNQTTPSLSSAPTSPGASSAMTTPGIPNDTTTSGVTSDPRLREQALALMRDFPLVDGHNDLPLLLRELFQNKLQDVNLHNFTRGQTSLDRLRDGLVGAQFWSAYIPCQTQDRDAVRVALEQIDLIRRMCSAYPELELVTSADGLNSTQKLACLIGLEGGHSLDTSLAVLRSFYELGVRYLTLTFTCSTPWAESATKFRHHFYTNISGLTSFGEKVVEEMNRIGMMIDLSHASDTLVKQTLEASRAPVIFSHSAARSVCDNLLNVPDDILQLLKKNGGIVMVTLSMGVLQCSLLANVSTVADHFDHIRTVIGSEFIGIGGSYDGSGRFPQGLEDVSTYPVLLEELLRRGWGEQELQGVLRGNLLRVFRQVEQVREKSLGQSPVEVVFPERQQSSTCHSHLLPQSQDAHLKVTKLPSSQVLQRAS
Described as above.

The target of experiment [3] is T4, human DPEP3 (hDPEP3) protein on the cell surface (human, UniProt Q9H4B8 36-463, GPI anchor at the C-terminus after removal of the final 25 amino acids).
T4 construct: The assay field says which
T4 sequence: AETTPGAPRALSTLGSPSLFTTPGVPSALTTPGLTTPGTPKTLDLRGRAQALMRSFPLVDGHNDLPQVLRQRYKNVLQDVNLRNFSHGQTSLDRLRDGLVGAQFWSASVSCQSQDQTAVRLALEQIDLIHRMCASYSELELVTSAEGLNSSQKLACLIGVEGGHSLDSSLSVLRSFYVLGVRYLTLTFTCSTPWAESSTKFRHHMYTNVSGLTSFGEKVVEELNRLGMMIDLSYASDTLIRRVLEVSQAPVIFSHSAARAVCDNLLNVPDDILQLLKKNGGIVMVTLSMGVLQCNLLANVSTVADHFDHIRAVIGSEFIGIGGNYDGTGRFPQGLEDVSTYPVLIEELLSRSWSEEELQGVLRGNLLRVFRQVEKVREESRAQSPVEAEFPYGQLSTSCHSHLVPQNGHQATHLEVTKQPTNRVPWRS
Description: flow cytometry, HEK-293T cells overexpressing hDPEP3. The method, then:
The isolated cells were incubated for 30 mins. with anti-DPEP3 antibodies and washed twice in PBS/2% FCS. The cells were incubated for 15 mins. with 50 μL per sample AlexaFluor-647 labeled goat-anti-mouse IgG, Fc fragment specific secondary antibody diluted 1:200 in PBS/2% FCS, washed twice with PBS/2% FCS and re-suspended in PBS/2% FCS with DAPI ([…]). The cells were analyzed on a BD FACS Canto II flow cytometer with anti-DPEP3 antibodies.
A general note: A flow cytometer gives signals particle by particle.

Experiment [4] concerns the target T2, hDPEP2 ECD with histidine tag. Briefly: ELISA, coated antigen. (In general: ELISA stands for enzyme-linked immunosorbent assay.)
Experiment [5] deals with T3, rat DPEP3 ECD with histidine tag. Description: ELISA, coated antigen.
The next experiment deals with T5, mDPEP3 (limits assumed).
T5 construct: also called mouse DPEP3-His; mouse DPEP3 ECD with histidine tag
T5 single chain: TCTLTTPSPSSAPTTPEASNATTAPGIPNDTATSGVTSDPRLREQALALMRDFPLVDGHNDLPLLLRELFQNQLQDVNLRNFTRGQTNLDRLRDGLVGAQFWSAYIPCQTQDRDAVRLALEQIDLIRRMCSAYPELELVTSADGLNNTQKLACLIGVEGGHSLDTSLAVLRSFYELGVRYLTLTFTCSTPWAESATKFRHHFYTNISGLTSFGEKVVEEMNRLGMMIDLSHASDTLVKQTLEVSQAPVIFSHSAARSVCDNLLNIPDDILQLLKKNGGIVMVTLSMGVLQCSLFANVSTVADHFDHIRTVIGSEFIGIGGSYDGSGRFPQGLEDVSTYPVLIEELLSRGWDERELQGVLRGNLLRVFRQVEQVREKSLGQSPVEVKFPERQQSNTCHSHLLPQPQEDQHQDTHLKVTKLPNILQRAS
Briefly: ELISA, coated antigen.

In experiment [6] the target is T2, hDPEP2 ECD with histidine tag. Briefly: ELISA, coated antigen, antibody 1 ug/mL. As for the experimental part: The anti-DPEP3 antibodies were screened by ELISA for cross-reactivity with mouse, rat and cynomolgus DPEP3 and for cross reactivity to hDPEP2, the closest DPEP3 family member. ELISA was conducted as follows. Plates were coated with purified mouse, rat or cynomolgus DPEP3-His or hDPEP2-His at 0.3 μg/mL in 0.2 M carbonate-bicarbonate buffer, pH 9.4 overnight at 4° C. The protein solution was removed and the wells were blocked with 1% (w/v) BSA in PBS (PBSA), 100 μL/well for 1 hour at 37° C. Anti-DPEP3 antibody or a mouse isotype control antibody was then added at 1 μg/mL in 50 μL PBSA for 1 hour at room temperature. After washing with water, 50 μL/well HRP-labeled goat anti-mouse IgG antibody diluted 1:10,000 in PBSA was added for 30 min at room temperature. The plates were washed and developed by the addition of 40 μL/well of the TMB substrate solution (Thermo Scientific) at room temperature. An equal volume of 0.2 M H₂SO₄ was added to stop substrate development. The samples were then analyzed by spectrophotometer at OD 450. […] The cross reactivity results for exemplary DPEP3-specific antibodies can be seen in FIG. 4.

The target in another experiment is T6, hDPEP3-ECD-His (human, UniProt Q9H4B8 36-463).
T6 construct: also called hDPEP3-His; monomeric hDPEP3-His antigen; not shown: histidine tag
T6 sequence: T4 sequence
Briefly: BLI ForteBio RED, 200 nM hDPEP3-His, estimated grade. The method, boiled down: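 Antibodies were captured on anti-mouse Fc biosensors to 0.3-1 units, then exposed to hDPEP3-His for a 4 min association and a 3 min dissociation at 1000 rpm. A control mouse IgG response was subtracted, and KD was estimated qualitatively from the curves. Sensors were regenerated with 10 mM glycine, pH 1.7.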

The target in a further experiment is T7, cDPEP3 (Macaca fascicularis, UniProt Q4R7M2).
T7 construct: extracellular domain; also called cynomolgus DPEP3-His; cynomolgus DPEP3 ECD with histidine tag
T7 sequence (single chain, looked up): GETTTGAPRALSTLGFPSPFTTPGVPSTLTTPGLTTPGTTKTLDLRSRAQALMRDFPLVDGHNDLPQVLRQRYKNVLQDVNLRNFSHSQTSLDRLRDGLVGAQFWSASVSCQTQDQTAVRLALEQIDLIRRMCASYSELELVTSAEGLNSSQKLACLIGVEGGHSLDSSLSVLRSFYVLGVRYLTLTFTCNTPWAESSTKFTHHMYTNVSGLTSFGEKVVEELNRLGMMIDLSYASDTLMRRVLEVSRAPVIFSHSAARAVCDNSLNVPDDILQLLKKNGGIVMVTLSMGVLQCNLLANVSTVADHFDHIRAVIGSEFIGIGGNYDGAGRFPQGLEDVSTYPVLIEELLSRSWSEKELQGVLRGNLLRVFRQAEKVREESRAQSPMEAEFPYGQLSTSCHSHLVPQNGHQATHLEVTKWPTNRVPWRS
Briefly: ELISA, coated antigen.

T2 sequence (Q9H4A9 33-463): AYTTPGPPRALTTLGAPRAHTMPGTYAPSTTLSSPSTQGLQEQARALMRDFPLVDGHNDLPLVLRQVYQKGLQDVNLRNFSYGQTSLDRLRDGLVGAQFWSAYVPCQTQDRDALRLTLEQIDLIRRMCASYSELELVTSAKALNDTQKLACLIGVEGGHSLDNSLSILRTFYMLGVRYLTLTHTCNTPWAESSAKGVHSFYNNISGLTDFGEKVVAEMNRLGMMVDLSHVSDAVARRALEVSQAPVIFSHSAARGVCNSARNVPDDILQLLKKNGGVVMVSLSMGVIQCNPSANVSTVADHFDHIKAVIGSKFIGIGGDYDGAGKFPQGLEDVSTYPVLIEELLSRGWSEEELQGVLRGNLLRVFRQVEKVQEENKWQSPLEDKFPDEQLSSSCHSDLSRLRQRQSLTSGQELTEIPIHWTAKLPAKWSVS

B1: hSC34.14 humanized anti-DPEP3 antibody (antibody, human IgG1, kappa, V domains shown)
VH: QVQLVQSGAEVKKPGASVKVSCKASGYTFTDYYMHWVRQAPGQRLEWMGRVNPKKGGTTYNQKFEGRVTITRDTSASTAYMELSSLRSEDTAVYYCAMGIYYSYDASFDYWGQGTTVTVSS
VL: DIQMTQSPSSLSASVGDRVTITCRTSEHIYSYLAWYQQKPGKAPKLLIYNAKTLAEGVPSRFSGSGSGTDFTLTISSLQPEDFATYYCQHHYDTPYTFGQGTKLEIKR
notes: Human IgG1/kappa
As to B1, the results for the binding result (in the experiment with hDPEP1-His; in experiment [1]; in experiment [2]) were “no binding”, “binds” and “no binding”, respectively.

B2: SC34.36 (antibody, mouse IgG2a, V domains shown)
VH: QVQLQQPGSVLVRPGASVKLSCKASGYTFTSYWMHWVKQRPGQGLEWIGEISPTSGRPNYNAKFKGKATLTVDTSSSTAYVDLSSLTSEDSAVYYCAKGEGYYGKAFDYWGQGTTLTVSS
VL: DIQMTQTTSSLSASLGDRVTISCRASQDISNYLNWYQQKPDGTVKLLIYYTSRLHSGVPSRFSGSGSGTDYSLTISNLEQEDIATYFCQQGNTLPWTFGGGTKLEIK
Take B2: the binding result is “binds” in experiment [3], “no binding (tested: 1 ug/mL)” in [4], “no binding (tested: 1 ug/mL)” in experiment [5] and “no binding (tested: 1 ug/mL)” with mDPEP3.

B3: SC34.46 (antibody, mouse IgG1, V domains shown)
VH: QVQLQQSGTELARPGTSVKLSCKASGYTFRSYAISWVRQRTGQGLEWIGEIYPGSDKTYYNESLKGKVTLTTDKCSSTANMQLTSLTSEDSAVYFCARVHDYGSWFPYWGQGTLVTVSA
VL: DIVMSQSPSSLAVSVGEKVTMSCKSSQSLLYSKYQKNFLAWYQQKPGQSPKLLIYWASTRESGVPDRFTGSGSGTDFTLTISNVKAEDLAVYYCQQYYRYPLTFGAGTTLELK
As usually defined, the Kd is a measure of binding affinity in units of concentration. In the case of B3, the binding result in [6] was “binds”. For the same molecule, the Kd in the experiment with hDPEP3-ECD-His was less than 5 nM.

B4: SC34.11 (antibody, mouse IgG2a, V domains shown)
VH: QVQLQQSGAELAKPGASVKMSCKASGYTFTNYWMIWVKQRPGQGLEWIGYIDPTTDYTAYNQKFKDKATVTADKSSSTAYMQLNSLTSEDSAVYYCARGGNVALDFWGQGTSVTVSS
VL: DIVMSQSPSSLAVSAGEKVTMSCKSSQSLLNSRTRKNYLAWYQQKPGQSPKLLIYWASTRESGVPDRFTGSGSGTDFTLTISSVQAEDLAVYYCKESYNLWTFGGGTKLEIK
B4: the binding result in experiment [5] is “no binding (tested: 1 ug/mL)”; with cDPEP3, “no binding (tested: 1 ug/mL)”; with mDPEP3 it was “no binding (tested: 1 ug/mL)”; in experiment [6] it was “binds”. In addition, the equilibrium dissociation constant (Kd) with hDPEP3-ECD-His was ≥ 5 nM and ≤ 10 nM.
